Biological target: EGFR receptors of A431 human epidermoid carcinoma cells (human) (UniProt P00533)

In the case of “DTox-HMP-NLS-EGF after refolding (from UniProt P00588 198-384; P24232 1-396; P01133 971-1023)”, the Ka is reported as 5.4e+13 M⁻¹ and the fold increase of affinity after refolding against before refolding is reported as > 2.8 fold.

From patent US9095624
